Patent US20020146805

Test system: PFEK-protease T-6xHIS zymogen
Sequence (chain, as listed by the source): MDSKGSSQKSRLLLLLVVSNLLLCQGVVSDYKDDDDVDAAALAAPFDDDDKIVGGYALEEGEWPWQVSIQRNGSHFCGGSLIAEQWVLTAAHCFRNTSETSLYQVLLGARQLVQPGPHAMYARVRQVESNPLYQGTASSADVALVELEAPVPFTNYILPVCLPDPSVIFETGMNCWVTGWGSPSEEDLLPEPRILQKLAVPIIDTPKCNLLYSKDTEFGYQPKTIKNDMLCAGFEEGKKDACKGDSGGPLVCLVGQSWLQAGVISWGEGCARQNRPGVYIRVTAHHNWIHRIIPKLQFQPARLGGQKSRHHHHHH

Q: For enterokinase, which “cleavage of the zymogen (SDS-PAGE and anti-FLAG Western blot)” value is on record?
A: quantitative cleavage of the expressed and purified zymogen to generate the processed and activated protease
